Results taken from the DeepSol protein solubility set.

Assay: soluble on expression in E. coli; label from the status in PepcDB or PDB records

Row | Sequence | soluble on expression in E. coli
1 | MFIQTEATPNPATLKFLPGKVVLESGTVEFLNASQAQASPLAERLFTIPGVTGVYFGFDFITVTKDDAEWQHLKPAILGSIMEHFMSGRPIMGTAIAAEVSDEEGEFFEEGDETIVATIKELLDTRVRPAVAQDGGDITFRGFRDGTVFLNMKGACSGCPSSTATLKHGVQNLLRHFVPEVREVEAV | not soluble
2 | MNPIVVLGSKVVDGQVTGLLASRLEKAIEVSSLTPEAPVVVSGFGEAAAMADYLRARGVTTIVEEPWATSTNENLENAHALFPDTLQWTVVTSGFHAWRTYLWAWHLGIPIKVVTARTPSAERLGMAMRECFALPHSTLRVLWRKIRTPKNLEHHHHHH | soluble
3 | MGNQMSVPQRVEGQENEPEAETYQDNASALNGVPVVVSTHTVQHLEEVDLGISVKTDNVATSSPETTEISAVADANGKNLGKEAKPEAPAAKSRFFLMLSRPVPGRTGDQAADSSLGSVKLDVSSNKAPANKDPSESWTLPVAAGPGQDTDKTPGHAPAQDKALSAARDPTLLPPETGGAGGEAPSKPKDSSFFDKFFKLDKGQEKVPGDSQQEAKRAEHQDKVDEVPGLSGQSDDVPAGKDIVDGKEKEGQELGTADCSVPGDPEGLETAKDDSQAAAIAENNNSIMSFFKTLVSPNKAETKKDPEDTGAEKSPTTSADLKSDKANFTSQETQGAGKNSKGCNPSGHTQSVTTPEPAKEGTKEKSGPTSLPLGKLFWKKVVCESPVEIIKSKEVESALQTVDLNEGDAAPEPTEAKLKREESKPRTSLMAFLRQMSVKGDGGITHSEEINGKDSSCQTSDSTEKTITPPEPEPTGAPQKGKEGSSKDKKSAAEMNKQKSNKQEAKEPAQCTEQATVDTNSLQNGDKLQKRPEKRQQSLGGFFKGLGPKRMLDAQVQTDPVSIGPVGKSK | soluble
4 | ISKETEEIDEQQVFIDSLSGHAQILYEKYHVLPSITIAQAILESDWGNSELAAKANNLFGVKGNYKGHHVTMETDEVEKGKRKTIRAKFRKYSTFFESMDDHAQLFVRGTSWNKKKYKPVLEAGNYKEAATALQTSGYATDPDYADKISAIVEKYDL | not soluble
5 | SKDFTWEVGYNITWNDSKITKLTTTFNPDYQGIDAGTNQKHQVGEMPGTFYLYQQVYDENGKPIQNAFVDRNNDGQITEADRYLTHKSPMAKVYMGFSSQFSYKKWDLGFNLRANFGNYVYNGVASGNSTSNNYGGKGFVTNLYNGFQDTGFTLLNTSEQMASDYFLENASFLKMDNITLGYSFQNLFAAKLSGRISASVQNVFTISKYSGLDPECGAIDSNIWPRPRTYTIGLNLNF | not soluble
6 | MAHHHHHHMTTPSSPAHPAAHLCDVTGDTAAAAAAGASGMMADTARMLSPRPSVTRTAAKTSGGPVQVALSQSCPHPHQQHQQHHQHHQHQQHHQHHQHQQHHQHHQHQQHHQHQQHQQHQQPCLGGLLDPFFLTEIDENVQAFSGTAATSGSHTSLSGDGGSPSAKDAALCSPCVECVPPARGKTVRKSRSACELRLECLLSTSMGSDITKDEADDSKRKRRQPSSFPSSSRRDTAGCFSSVEVMGPTDEVAAADEAIATTAATAADAEAGVKSRDPKRRSLLPTWVTARTSTVTRAGAPPTDSGETSRTANGCLASPRSFSLSHSKPSSGSRDTSEGSHVLDCEATLLPSESVGVVASTHSSTVSSYASEAQGRAAEEATNCATAGGATVGSKMTLLVSLIMRCTPSRRGPPHSASPTEDGAADAERLPPLELYPPLVSPSSIEEASCGVGYDVPSAHHDDMYAMKDITVAVKEDVNQRRGALAKEPTLPASTASRRTQHTKWSMHPSPVSAWLLGSSAVGASLSTALWRAALRSRPAMHTPCSCVSARAEQHSVQVLSRVLANGSAVSTKVLAMRSWAEFERASVSFPSTWSASVSAHLSAVPPSLTTDSTTLRGPSMLHLTLPPLPDQTSVGPASIAYINRAPSRPAATAEEVVARQPCDVWRLARCYAHFERAVEQRGEDGVWSARGISSLATWDSVKLVVAAGVASRDAESSTDEGCEDGGAWLLPSFTLDVVPDTLDTPSPASPQVTSTFPFSPVVSVLRAEKEEEVFTSAVMWALEMMTGVR | soluble
7 | MGSDKIHHHHHHMTKITVLSGKGGTGKTTVSVNMAKALSESYRVQLLDADVEEPNDHIFFNVDVSFEEPVHLMIPVVDNSVCIRCGECASTCQFGAISVFPSGTFVFESLCHGCGACSIMCPVNAISERPKEIGKIRFGTADGNISFGMGILNIGERTGVPVIRKLKKHIDEKADVVIVDAPPGTSCPVVESLRNTDFALLVTEPTAFGLHDLKLAVELTKEMGIPSGIVVNRYIPGNTIIEEFADEEGIPVLLKIPFKREIASLCAEGKLIVEAFQDMKKDFLELFEKIEVMVR | not soluble
8 | MGSDKIHHHHHHCGGSGSSEPVAPTTTPDTGFSFAATAMITNLTQEVIVTGYADLAAKGSELVLATQKLINSTSQADLVAAQDAWKAARQPWEQGESHIFGPVDSLSIDPHLDSWPLNTTDLSTQLTTAAGFDAETIKSWNDDVQGFHTMEYLLFGDGVADNTKDISELTVKEREYLIALAQVFRDHAKTLDDAWQINHKPDDANAKPYAELLSQPGVDGNTVYSSELAVIEELINGMIGIVDEVGNGKISDPFGDSITSADTSKVESQYSWNSLTDFANNIQGVRNVYQGEFTGNTDKQGVKDFVSAADANLAVRVASEIDDAIIKIQAISGSNSMPFRQAIKDANGRVRIQTAIDALTKLKTSLESDVIPLLSKWKPA | not soluble
9 | MGSDKIHHHHHHMRIFLVGMMGSGKSTIGKRISEVLDLQFIDMDEEIERREGRSVRRIFEEDGEEYFRLKEKELLKELVERDNVVVATGGGVVVDPENRELLKKEKTLFLYAPPEVLMERVTTENRPLLSEGKERIREIWEKRKQFYAEFRRIDTSRLNEWETTALVVLEALDEKEISTIEKPHLVKIILGGFKRVRNEELVFTTERVEKIYGRYLPENRLLFPDGEEVKTLEHVSRAYYELIRMDFPRGKTIAGVGGGALTDFTGFVASTFKRGVGLSFYPTTLLAQVDASVGGKNAIDFAGVKNVVGTFRMPDYVIIDPTVTLSMDEGRFEEGVVEAFKMTILSGRGVELFDEPEKIEKRNLRVLSEMVKISVEEKARIVMEDPYDMGLRHALNLGHTLGHVYEMLEGVPHGIAVAWGIEKETMYLYRKGIVPKETMRWIVEKVKQIVPIPVPSVDVEKARNLILNDKKILKGSRVRLPYVKEIGKIEFLEVDPLELLEVVD | not soluble
10 | MGSDKIHHHHHHMDGLLNPRESSKFIAENSRDVFIDSGGVRRVAELLLAKAAGPELRVEGWKALHELNPRAADEAAVNWVFVTDTLNFSFWSEQDEHKCVVRYRGKTYSGYWSLCAAVNRALDEGIPITSASYYATVTLDQVRNILRSDTDVSMPLVEERHRILNETGKILLEKFGGSFLNCVRESENSAQKLMHLVVESFPSYRDVTLFEGKRVSFYKRAQILVADTWSVLEGKGDGCFKDISSITMFADYRLPQVLAHLGALKYSDDLLKKLLKGEMLSYGDRQEVEIRGCSLWCVELIRDCLLELIEQKGEKPNGEINSILLDYYLWDYAHDHREDMKGIPFHRIRCIYY | not soluble
11 | MSLNQASLERNELHNTIWKVANELRGSVDGWDFKQYVLGILFYRYISENMTHYINKEERKRDPSFDYAKLSDEKAERGRKHLIEQKGFFIPPSALFCNALKNACHNEDLNVTLQNIFNEIEKSSLGTPSEENVKGLFADLDVNSNKLGSSHQNRVEKLTKILEAIGGMQLGDYLKSGIDVFGDAYEYLMAMYASNAGKSGGEFFTPQEVSELLAKITLHGQESVNKVYDPCCGSGSLLLQFSKVLGDKNVSKGYFGQEINLTTYNLCRINMFLHDINYSKFHIAHGDTLLDPKHEDDEPFDAIVSNPPYSTKWVGDSNPILINDERFSPAGVLAPKNAADLAFTMHMLSYLSNSGTAAIVEFPGVLYRGNAEAKIREYLVKENVIDCVIALPDNLFFGTSIATCILVLKKNEGHHHHHH | not soluble
12 | MGSDKIHHHHHHVTSQAPVEVMTDIMTKFTSYIGKRLPTDIKEKLADLREAETNPMANVLFDSMAENQEAADKLNRPSCQDTGVIQYFITAGAKFPLLGELEEILRNATLGATKLGPLRHNAVEAFDEKNTGTNTGSRIPWLDWEIVPNDDGVIIDVYMAGGGCTLPGASTVLMPGQGYEGVVDFVFDVVTSRGINACPPLLIGVGVSTSAETAARLSKKAILRPVGSHHDNANAAKMETLLEDGLNELGIGPQGLTGNSSVMGVNIESSARHPSTIGVAVSTGCWAHRRGRIRFNADLSYEIVSHEGVVL | not soluble
